Test results taken from article PMC4860839, “Structures of the APC–ARM domain in complexes with discrete Amer1/WTX fragments reveal that it uses a consensus mode to recognize its binding partners” (Cell Discovery, 2015).

B1: Amer1-A1 (human, residues 280–369), two-hybrid prey [human] / pBTM-APC–ARM (residues 308–789), two-hybrid bait [human] (parent complex)
chain 1: SLEEPHSPETGEKVVAGEVNPPNGPVGDPLSLLFGDVTSLKSFDSLTGCGDIIAEQDMDSMTDSMASGGQRANRDGTKRSSCLVTYQGGG
chain 2: LGTKVEMVYSLLSMLGTHDKDDMSRTLLAMSSSQDSCISMRQSGCLPLLIQLLHGNDKDSVLLGNSRGSKEARARASAALHNIIHSQPDDKRGRREIRVLHLLEQIRAYCETCWEWQEAHEPGMDQDKNPMPAPVEHQICPAVCVLMKLSFDEEHRHAMNELGGLQAIAELLQVDCEMYGLTNDHYSITLRRYAGMALTNLTFGDVANKATLCSMKGCMRALVAQLKSESEDLQQVIASVLRNLSWRADVNSKKTLREVGSVKALMECALEVKKESTLKSVLSALWNLSAHCTENKADICAVDGALAFLVGTLTYRSQTNTLAIIESGGGILRNVSSLIATNEDHRQILRENNCLQTLLQHLKSHSLTIVSNACGTLWNLSARNPKDQEALWDMGAVSMLKNLIHSKHKMIAMGSAAALRNLMANRPAKYKDANIMSPGSSLPSLHVRKQKALEAELDAQHLSETFDNIDNLSPKASHRSKQ
B2: Amer1-A4 (human, residues 337–455), two-hybrid prey [human] / pBTM-APC–ARM (residues 308–789), two-hybrid bait [human] (parent complex)
chain 1: MDSMTDSMASGGQRANRDGTKRSSCLVTYQGGGEEMALPDDDDEEEEEEEEVELEEEEEEVKEEEEDDDLEYLWETAQMYPRPNMNLGYHPTTSPGHHGYMLLDPVRSYPGLAPGELLT
chain 2: B1 chain 2
B3: pBTM-APC–ARM (residues 308–789), two-hybrid bait [human] / Amer1-A2 (murine, residues 388–551), two-hybrid prey [murine] (parent complex)
chain 1: B1 chain 2
chain 2: EEEEEEEEEEEEEEEEEEEEEELLEDEEEVKDGEENDDLEYLWASAQIYPRFNMNLGYHTAISPSHQGYMLLDPVQSYPNLGLGELLTPQSDQQESAPNSDEGYYDSTTPGFEDDSGEALGLAHRDCLPRDSYSGDALYEFYEPDDSLEHSPPGDDCLYDLRGR
B4: Amer1-A2 (human, residues 380–531), two-hybrid prey [human] / pBTM-APC–ARM (residues 308–789), two-hybrid bait [human] (parent complex)
chain 1: EEEEEEEEVELEEEEEEVKEEEEDDDLEYLWETAQMYPRPNMNLGYHPTTSPGHHGYMLLDPVRSYPGLAPGELLTPQSDQQESAPNSDEGYYDSTTPGFEDDSGEALGLVRRDCLPRDSYSGDALYEFYEPDDSLENSPPGDDCLYDLHGR
chain 2: B1 chain 2

Variants of: B1
Test: yeast two-hybrid assay (relative β-galactosidase reporter activity); parent: 100

Variant	percent of parent [%]
chain 1 D51K	0
chain 1 D44K	31.9
chain 1 T47R	65.2

Variants of: B2
Test: as above

Variant	percent of parent [%]
chain 1 E34K	0.85

Variants of: B3
Test: as above

Variant	percent of parent [%]
chain 1 N243K	0.12
chain 1 K209E	0.27
chain 1 R420E	75.2
chain 1 R242E	0.06
chain 1 N200K	0.33
chain 1 M410K	87.8

Variants of: B4
Test: as above

Variant	percent of parent [%]
chain 1 D119K	0.28
chain 1 D124K	0.17
